{
  "source": "patent US20080318857A1",
  "about": "(MEDICAL COLLEGE OF GEORGIA RESEARCH INSTITUTE, published 2008)",
  "binders": {"B1": {"name": "Flt23K intraceptor (Flt23-KDEL; domains 2 and 3 of VEGFR-1 (Flt) fused at the C-terminus to the ER retention signal KDEL) (receptor)", "chain": "DTGRPFVEMYSEIPEIIHMTEGRELVIPCRVTSPNITVTLKKFPLDTLIPDGKRIIWDSRKGFIISNATYKEIGLLTCEATVNGHLYKTNYLTHRQTNTIIDVQISTPRPVKLLRGHTLVLNCTATTPLNTRVQMTWSYPDEKNKRASVRRRIDQSNSHANIFYSVLTIDKMQNKDKGLYTCRVRSGPSFKSVNTSVHIYDKAFITVKHRKKDEL", "notes": "Expressed inside transfected cells from pCMV.Flt23K, not purified; also called pCMV.Flt23K (expression plasmid); pCMV.Flt23"}},
  "biological_target": "T1, VEGFR-2 (KDR), endogenous in A375 human malignant melanoma cells (human, UniProt P35968 20-1356, limits assumed)",
  "T1 construct": "Endogenous protein in cell lysate; also called Flk",
  "T1 sequence (P35968 20-1356 limits assumed)": "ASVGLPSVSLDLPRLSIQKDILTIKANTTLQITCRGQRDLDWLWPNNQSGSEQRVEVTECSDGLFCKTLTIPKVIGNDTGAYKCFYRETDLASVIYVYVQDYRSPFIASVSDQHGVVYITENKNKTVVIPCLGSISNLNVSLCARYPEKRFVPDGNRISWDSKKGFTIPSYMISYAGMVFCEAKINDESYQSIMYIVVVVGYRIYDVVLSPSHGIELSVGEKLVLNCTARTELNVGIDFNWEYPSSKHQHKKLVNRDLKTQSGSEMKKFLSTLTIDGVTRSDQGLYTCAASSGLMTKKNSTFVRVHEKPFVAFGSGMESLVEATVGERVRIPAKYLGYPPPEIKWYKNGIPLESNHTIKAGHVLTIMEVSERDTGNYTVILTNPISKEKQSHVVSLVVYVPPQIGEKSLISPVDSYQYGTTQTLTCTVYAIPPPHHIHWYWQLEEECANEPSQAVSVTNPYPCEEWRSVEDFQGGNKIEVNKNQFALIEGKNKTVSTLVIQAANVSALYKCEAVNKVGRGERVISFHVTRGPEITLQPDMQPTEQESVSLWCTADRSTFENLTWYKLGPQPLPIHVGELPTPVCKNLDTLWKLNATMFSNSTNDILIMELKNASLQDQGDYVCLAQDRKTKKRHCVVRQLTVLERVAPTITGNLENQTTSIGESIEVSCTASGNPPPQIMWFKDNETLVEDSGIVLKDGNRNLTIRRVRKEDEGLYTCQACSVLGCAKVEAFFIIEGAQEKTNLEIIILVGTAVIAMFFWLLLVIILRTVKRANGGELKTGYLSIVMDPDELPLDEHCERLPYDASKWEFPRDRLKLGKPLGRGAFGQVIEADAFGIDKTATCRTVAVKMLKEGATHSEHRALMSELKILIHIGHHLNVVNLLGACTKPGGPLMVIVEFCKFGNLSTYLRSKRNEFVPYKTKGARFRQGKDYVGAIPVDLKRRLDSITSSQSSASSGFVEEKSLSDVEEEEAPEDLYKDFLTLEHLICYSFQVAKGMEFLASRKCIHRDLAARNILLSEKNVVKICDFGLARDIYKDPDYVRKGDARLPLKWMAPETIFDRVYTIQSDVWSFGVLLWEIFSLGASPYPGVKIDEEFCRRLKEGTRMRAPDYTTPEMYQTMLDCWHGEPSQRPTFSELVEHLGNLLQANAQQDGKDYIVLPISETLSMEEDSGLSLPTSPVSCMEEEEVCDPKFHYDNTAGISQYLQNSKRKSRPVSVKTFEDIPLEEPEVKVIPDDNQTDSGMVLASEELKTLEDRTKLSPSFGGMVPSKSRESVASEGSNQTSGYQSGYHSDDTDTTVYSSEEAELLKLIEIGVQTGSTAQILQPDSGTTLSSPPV",
  "test": "co-immunoprecipitation: anti-FLT IP of transfected hypoxic A375 cell fraction, Western blot with anti-VEGFR-2",
  "method": "HMMCs transfected with pCMV.Flt23K or pCMV.Flt24K were subjected to hypoxia 48 hours after transfection. Two days later, the cellular fraction was immunoprecipitated with anti-FLT antibody (epitope specific for domains 2 and 3; Santa Cruz, Calif.) and subsequently underwent Western blotting with an anti-VEGF or an anti-VEGFR-2 antibody. A 50 kDa band (consistent with a VEGF homodimer interacting with the intraceptor) was detected in cells transfected with pCMV.Flt23K or pCMV.Flt24K (FIG. 5A). A 30 kDa band was present in cells transfected with pCMV.Flt24K but not pCMV.Flt23K (FIG. 5B).",
  "data": [
    {"binder": "B1", "values": [
      {"measurement": "binding result", "value": "no binding"}
    ]}
  ]
}
